Results as given in article PMC11018839, “ANKFY1 bridges ATG2A-mediated lipid transfer from endosomes to phagophores” (Cell Discovery, 2024).

Molecular target: T1, purified Flag-ATG2A-His protein (human, UniProt Q2TAZ0 1-1938)
T1 construct: ATG2A, human; Flag-ATG2A-His with a C-terminal His tag; not shown: His tag, C-terminal, kept
Experiment: liposome co-flotation; 100 nm liposomes with 5% PI3P (2% Rhod-PE, 30% POPE, 63% DOPC), 1 mM lipids, incubated with 4.28 uM ANKFY1, 0.5 uM ATG2A or both at 37 °C for 1 h; 50 mM HEPES pH 8.0, 300 mM NaCl, 1 mM TCEP; floated on a histodenz gradient; topmost fraction analysed by SDS-PAGE and western blot
Details: both partners purified

T1 sequence (Q2TAZ0 whole entry): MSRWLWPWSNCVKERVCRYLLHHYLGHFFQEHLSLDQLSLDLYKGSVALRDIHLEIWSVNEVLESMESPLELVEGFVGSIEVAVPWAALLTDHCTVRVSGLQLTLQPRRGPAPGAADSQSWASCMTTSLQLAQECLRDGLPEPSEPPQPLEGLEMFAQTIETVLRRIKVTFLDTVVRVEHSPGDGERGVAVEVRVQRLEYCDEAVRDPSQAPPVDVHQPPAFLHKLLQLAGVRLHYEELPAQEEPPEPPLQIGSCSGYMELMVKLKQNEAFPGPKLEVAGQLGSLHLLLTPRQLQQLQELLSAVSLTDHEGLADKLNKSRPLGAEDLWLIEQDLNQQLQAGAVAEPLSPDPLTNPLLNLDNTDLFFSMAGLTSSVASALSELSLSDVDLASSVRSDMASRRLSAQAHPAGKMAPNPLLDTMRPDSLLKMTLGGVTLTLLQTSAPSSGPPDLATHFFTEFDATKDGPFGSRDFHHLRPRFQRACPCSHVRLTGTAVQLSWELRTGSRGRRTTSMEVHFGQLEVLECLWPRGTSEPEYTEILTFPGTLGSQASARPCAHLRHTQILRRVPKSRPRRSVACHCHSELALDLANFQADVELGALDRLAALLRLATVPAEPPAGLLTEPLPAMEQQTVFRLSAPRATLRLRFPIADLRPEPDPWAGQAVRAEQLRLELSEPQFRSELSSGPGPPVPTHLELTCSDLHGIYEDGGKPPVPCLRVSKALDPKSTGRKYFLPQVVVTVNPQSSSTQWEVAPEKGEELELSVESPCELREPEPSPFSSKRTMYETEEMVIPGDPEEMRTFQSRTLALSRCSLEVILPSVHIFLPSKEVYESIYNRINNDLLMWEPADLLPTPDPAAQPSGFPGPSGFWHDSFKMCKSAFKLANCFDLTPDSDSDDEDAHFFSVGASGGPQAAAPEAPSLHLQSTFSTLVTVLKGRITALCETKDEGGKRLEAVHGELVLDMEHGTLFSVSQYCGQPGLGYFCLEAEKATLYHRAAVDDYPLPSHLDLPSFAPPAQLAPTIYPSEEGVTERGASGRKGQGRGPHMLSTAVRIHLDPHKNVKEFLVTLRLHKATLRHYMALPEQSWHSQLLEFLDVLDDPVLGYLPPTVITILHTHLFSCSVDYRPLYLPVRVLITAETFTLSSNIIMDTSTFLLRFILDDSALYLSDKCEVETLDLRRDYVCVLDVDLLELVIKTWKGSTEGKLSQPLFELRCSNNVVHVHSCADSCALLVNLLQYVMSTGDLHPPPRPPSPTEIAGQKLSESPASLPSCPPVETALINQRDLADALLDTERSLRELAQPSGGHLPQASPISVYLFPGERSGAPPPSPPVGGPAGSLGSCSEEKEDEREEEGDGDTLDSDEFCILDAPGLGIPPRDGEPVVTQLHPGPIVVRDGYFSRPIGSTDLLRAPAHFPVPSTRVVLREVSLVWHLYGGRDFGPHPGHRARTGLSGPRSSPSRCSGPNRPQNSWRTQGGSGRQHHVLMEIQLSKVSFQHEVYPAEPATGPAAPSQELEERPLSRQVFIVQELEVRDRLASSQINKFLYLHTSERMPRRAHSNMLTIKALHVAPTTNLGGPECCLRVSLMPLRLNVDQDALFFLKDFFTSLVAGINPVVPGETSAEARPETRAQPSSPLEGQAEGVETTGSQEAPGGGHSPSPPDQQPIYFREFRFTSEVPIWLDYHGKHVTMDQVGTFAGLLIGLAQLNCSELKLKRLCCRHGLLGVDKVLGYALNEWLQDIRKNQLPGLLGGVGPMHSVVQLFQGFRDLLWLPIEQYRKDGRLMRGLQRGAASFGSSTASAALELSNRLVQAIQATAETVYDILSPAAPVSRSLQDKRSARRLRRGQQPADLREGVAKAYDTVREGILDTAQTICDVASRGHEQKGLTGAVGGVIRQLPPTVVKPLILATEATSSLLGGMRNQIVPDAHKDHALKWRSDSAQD

binding result: binds
B1: purified Flag-ANKFY1 full-length protein (natural protein, human, UniProt Q9P2R3 1-1169, looked up)
chain: MAEEEVAKLEKHLMLLRQEYVKLQKKLAETEKRCALLAAQANKESSSESFISRLLAIVADLYEQEQYSDLKIKVGDRHISAHKFVLAARSDSWSLANLSSTKELDLSDANPEVTMTMLRWIYTDELEFREDDVFLTELMKLANRFQLQLLRERCEKGVMSLVNVRNCIRFYQTAEELNASTLMNYCAEIIASHWDDLRKEDFSSMSAQLLYKMIKSKTEYPLHKAIKVEREDVVFLYLIEMDSQLPGKLNEADHNGDLALDLALSRRLESIATTLVSHKADVDMVDKSGWSLLHKGIQRGDLFAATFLIKNGAFVNAATLGAQETPLHLVALYSSKKHSADVMSEMAQIAEALLQAGANPNMQDSKGRTPLHVSIMAGNEYVFSQLLQCKQLDLELKDHEGSTALWLAVQHITVSSDQSVNPFEDVPVVNGTSFDENSFAARLIQRGSHTDAPDTATGNCLLQRAAGAGNEAAALFLATNGAHVNHRNKWGETPLHTACRHGLANLTAELLQQGANPNLQTEEALPLPKEAASLTSLADSVHLQTPLHMAIAYNHPDVVSVILEQKANALHATNNLQIIPDFSLKDSRDQTVLGLALWTGMHTIAAQLLGSGAAINDTMSDGQTLLHMAIQRQDSKSALFLLEHQADINVRTQDGETALQLAIRNQLPLVVDAICTRGADMSVPDEKGNPPLWLALANNLEDIASTLVRHGCDATCWGPGPGGCLQTLLHRAIDENNEPTACFLIRSGCDVNSPRQPGANGEGEEEARDGQTPLHLAASWGLEETVQCLLEFGANVNAQDAEGRTPIHVAISSQHGVIIQLLVSHPDIHLNVRDRQGLTPFACAMTFKNNKSAEAILKRESGAAEQVDNKGRNFLHVAVQNSDIESVLFLISVHANVNSRVQDASKLTPLHLAVQAGSEIIVRNLLLAGAKVNELTKHRQTALHLAAQQDLPTICSVLLENGVDFAAVDENGNNALHLAVMHGRLNNIRVLLTECTVDAEAFNLRGQSPLHILGQYGKENAAAIFDLFLECMPGYPLDKPDADGSTVLLLAYMKGNANLCRAIVRSGARLGVNNNQGVNIFNYQVATKQLLFRLLDMLSKEPPWCDGSYCYECTARFGVTTRKHHCRHCGRLLCHKCSTKEIPIIKFDLNKPVRVCNICFDVLTLGGVS
notes: ANKFY1, human, full length (ANKFY1-FL), N-terminal Flag tag, pCDNA4-TO vector; also called ANKFY1-FL; ANKFY1-Flag; source: 293S cells, purified (anti-Flag M2 resin, eluted with 3x Flag peptide); not shown: Flag, N-terminal, kept
